Results from publication PMC5461112, “Structure analyses reveal a regulated oligomerization mechanism of the PlexinD1/GIPC/myosin VI complex” (eLife, 2017).
Residue numbers refer to the chain shown, from its start. Names and notes keep the numbering of the source. Values joined by “and” are separate entries in the source; they are usually repeats but may differ in a detail not shown here. Equal entries are not always repeated.

How the values were obtained:
[1] = target: mouse GIPC1 GH1-PDZ-GH2 (version not told; pull-down and gel filtration) (mouse) (UniProt Q9Z0G0); assay: SEC; gel filtration chromatography of the GH1-PDZ-GH2 proteins during purification
[2] = target: mouse GIPC3 GH1-PDZ-GH2 (residues 20-307) (mouse); assay: as above
[3] = target: the molecule itself; assay: crystal structure; apo-GIPC1 (residues 52-327), 5 mg/ml; 0.2 M Li2SO4, 0.1 M HEPES pH 7.5, 25% (w/v) PEG3350; 20°C
[4] = target: the molecule itself; assay: SEC; gel filtration chromatography of the GH1-PDZ-GH2 proteins during purification
[5] = target: T1, mouse PlexinD1 cytoplasmic region with the JM-segment (residues 1297-1925) (mouse, UniProt Q3UH93 1297-1925); assay: pull-down; three proteins mixed: GST-HCBD, a GIPC and PlexinD1cyto (with JM), each 1 μM; glutathione beads; 10 mM Tris pH 8.0, 150 mM NaCl, 1 mM DTT; room temperature; Coomassie-stained SDS-PAGE; conditions: both partners purified
T1 construct: mouse PlexinD1, cytoplasmic region with the juxtamembrane segment, residues 1297-1925; also called PlexinD1_(cyto)(with JM); PlxD1; not shown: His6, N-terminal, cleaved
T1 sequence (looked up): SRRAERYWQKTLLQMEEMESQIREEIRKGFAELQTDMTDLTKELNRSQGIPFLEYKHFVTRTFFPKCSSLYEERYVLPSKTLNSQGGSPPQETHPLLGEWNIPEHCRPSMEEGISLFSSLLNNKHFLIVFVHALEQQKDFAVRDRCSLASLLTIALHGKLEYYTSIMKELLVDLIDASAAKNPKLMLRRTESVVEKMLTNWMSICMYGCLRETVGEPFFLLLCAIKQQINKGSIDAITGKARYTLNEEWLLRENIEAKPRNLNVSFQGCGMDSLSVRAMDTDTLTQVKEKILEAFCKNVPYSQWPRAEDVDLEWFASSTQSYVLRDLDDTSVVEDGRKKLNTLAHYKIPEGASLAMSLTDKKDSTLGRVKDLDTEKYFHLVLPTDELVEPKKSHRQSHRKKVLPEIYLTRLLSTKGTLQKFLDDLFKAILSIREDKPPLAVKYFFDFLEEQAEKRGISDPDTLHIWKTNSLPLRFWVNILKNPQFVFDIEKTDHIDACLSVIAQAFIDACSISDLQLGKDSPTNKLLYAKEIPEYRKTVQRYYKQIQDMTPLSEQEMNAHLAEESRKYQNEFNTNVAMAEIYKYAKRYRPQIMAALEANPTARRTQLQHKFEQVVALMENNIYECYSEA

[6] = target: the molecule itself; assay: crystal structure; PlexinD1cyto and GIPC1 (residues 52-333) mixed equimolar, 5 mg/ml; 0.1 M Bis-Tris pH 5.5, 2 M (NH4)2SO4; 20°C
[7] = target: T2, helical cargo-binding domain (HCBD) of mouse myosin VI (residues 1052-1096), GST removed; assay: sedimentation velocity analytical ultracentrifugation (AUC); conditions: chain shown with the change, 150 μM, read off a plot
T2 chain: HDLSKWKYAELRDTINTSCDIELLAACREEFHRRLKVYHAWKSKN

[8] = target: helical cargo-binding domain (HCBD) of mouse myosin VI (residues 1052-1096), GST removed (mouse); assay: AUC; sedimentation velocity of GH2 and HCBD mixed 1:1 at various concentrations (mutants at 150 μM); multi-signal analysis; 10 mM Tris pH 8.0, 150 mM NaCl, 1 mM TCEP; 4°C, 50,000 rpm
[9] = 500 mM salt in the buffer, parent: est. 4.3

Q: With “mouse GIPC1 GH1-PDZ-GH2 (version not told; pull-down and gel filtration) (from UniProt Q9Z0G0 52-333) (domain or fragment)” as the molecule, how does the stoichiometry N [1] read?
A: 2

Q: “mouse GIPC3 GH1-PDZ-GH2 (residues 20-307) (domain or fragment)” was tested. Which stoichiometry N [2] did it give?
A: 2

B1: mouse GIPC1 GH1-PDZ-GH2 version 2 (residues 52-327) (domain or fragment, UniProt Q9Z0G0 52-327, looked up)
chain: AALRPRLVFHTQLAHGSPTGRIEGFTNVKELYGKIAEAFRLPAAEVMFCTLNTHKVDMDKLLGGQIGLEDFIFAHVKGQRKEVEVFKSEEALGLTITDNGAGYAFIKRIKEGSVIDHIQLISVGDMIEAINGQSLLGCRHYEVARLLKELPRGRTFTLKLTEPRKAFDMISQRSAGGHPGSGPQLGTGRGTLRLRSRGPATVEDLPSAFEEKAIEKVDDLLESYMGIRDTELAATMVELGKDKRNPDELAEALDERLGDFAFPDEFVFDVWGAIGD
notes: mouse GIPC1, GH1-PDZ-GH2 domains, version 2, residues 52-327; the dimer peak of gel filtration was collected; also called apo-GIPC1; not shown: His6, N-terminal, cleaved
Q: Does B1 bind [3]?
A: binds

B2: mouse GIPC2 GH1-PDZ-GH2 (residues 40-314) (domain or fragment, UniProt Q9Z2H7 40-314, looked up)
chain: RKLVFHAQLAHGSATGRVEDFSSISELYAKIAGVFEIAPSEILFCTLNTPKIDMGKLLGGQLGLEDFIFAHVKGTKKEVNVYKSEDSLGLTITDNGVGYAFIKRIKDGSTIDSVKTICVGDHIECINGENIVGWRHFEVAKKLKELKKEELFTLQLIEPKKAFEIGPRSKAGKTSTEKIGTSRGTLRLRSKGPATVEELPSEAKAKAIGKVDDLLELYMGIRDIDLATTMFEAGKDKSNPDEFAVALDETLGDFAFPDEFLFDVWGAISDMKQGR
notes: mouse GIPC2, GH1-PDZ-GH2 domains, residues 40-314; not shown: His6, N-terminal, cleaved
Q: Which “stoichiometry N” value [4] does the source give for B2 here?
A: 2

Q: Does B2 bind [5]?
A: binds

B3: mouse GIPC1 GH1-PDZ-GH2 version 1 (residues 52-333) (domain or fragment, UniProt Q9Z0G0 52-333, looked up)
chain: AALRPRLVFHTQLAHGSPTGRIEGFTNVKELYGKIAEAFRLPAAEVMFCTLNTHKVDMDKLLGGQIGLEDFIFAHVKGQRKEVEVFKSEEALGLTITDNGAGYAFIKRIKEGSVIDHIQLISVGDMIEAINGQSLLGCRHYEVARLLKELPRGRTFTLKLTEPRKAFDMISQRSAGGHPGSGPQLGTGRGTLRLRSRGPATVEDLPSAFEEKAIEKVDDLLESYMGIRDTELAATMVELGKDKRNPDELAEALDERLGDFAFPDEFVFDVWGAIGDAKVGRY
notes: mouse GIPC1, GH1-PDZ-GH2 domains, version 1, residues 52-333; the PDZ-GH2 linker and GH2 domain are invisible in the map; not shown: His6, N-terminal, cleaved
Q: Does B3 bind [6]?
A: binds

B4: mouse GIPC1 linker-GH2 (residues 217-333), Q9Z0G0 Y275A; M276E; I278Q; G323Q (protein)
chain: AFDMISQRSAGGHPGSGPQLGTGRGTLRLRSRGPATVEDLPSAFEEKAIEKVDDLLESAEGQRDTELAATMVELGKDKRNPDELAEALDERLGDFAFPDEFVFDVWQAIGDAKVGRY
Q: Which other: s20,ww-value of the complex [7, 9] does the source give for B4 here?
A: 1.4 S

B5: mouse GIPC1 linker-GH2 (residues 217-333), Q9Z0G0 Y275A; M276E (protein)
chain: B4 chain with Q62I, Q107G
Q: How did the other: s20,ww-value of the complex [7, 9] turn out when B5 was run?
A: 1.4 S

B6: mouse GIPC1 linker-GH2 (residues 217-333), Q9Z0G0 Y275A; M276E; G323Q (protein)
chain: B4 chain with Q62I
Q: B6 was tested. Which other: s20,ww-value of the complex [7, 9] did it give?
A: 1.4 S

B7: mouse GIPC1 linker-GH2 (residues 217-333), Q9Z0G0 Y275A; M276E; I278Q (protein)
chain: B4 chain with Q107G
Q: For B7, which other: s20,ww-value of the complex [7, 9] is on record?
A: 1.4 S

B8: mouse GIPC1 GH2 domain (residues 258-333), Q9Z0G0 M276E (protein)
chain: SAFEEKAIEKVDDLLESYEGIRDTELAATMVELGKDKRNPDELAEALDERLGDFAFPDEFVFDVWGAIGDAKVGRY
Q: For B8, which other: s20,ww-value of the complex ([7]; parent: est. 3.8) is on record?
A: 3.3 S

B9: mouse GIPC1 GH2 domain (residues 258-333), Q9Z0G0 Y275A; M276E; I278Q (protein)
chain: B8 chain with Y18A, I21Q
Q: With B9 as the molecule, how does the other: s20,ww-value of the complex ([7]; parent: est. 3.8) read?
A: 1.3 S

B10: mouse GIPC1 GH2 domain (residues 258-333), Q9Z0G0 G323Q (protein)
chain: B8 chain with E19M, G66Q
Q: With B10 as the molecule, how does the other: s20,ww-value of the complex ([7]; parent: est. 3.8) read?
A: 1.8 S

B11: mouse GIPC1 GH2 domain (residues 258-333), Q9Z0G0 Y275A; M276E; I278Q; G323Q (protein)
chain: B8 chain with Y18A, I21Q, G66Q
Q: With B11 as the molecule, how does the other: s20,ww-value of the complex ([7]; parent: est. 3.8) read?
A: 1.3 S

B12: mouse GIPC1 GH2 domain (residues 258-333), Q9Z0G0 Y275A; G323Q (protein)
chain: B8 chain with Y18A, E19M, G66Q
Q: With B12 as the molecule, how does the other: s20,ww-value of the complex ([7]; parent: est. 3.8) read?
A: 1.6 S

B13: mouse GIPC1 GH2 domain (residues 258-333), Q9Z0G0 F319S (protein)
chain: B8 chain with E19M, F62S
Q: How did the other: s20,ww-value of the complex ([7]; parent: est. 3.8) turn out when B13 was run?
A: 2.4 S

B14: mouse GIPC1 GH2 domain (residues 258-333), Q9Z0G0 M276E; G323Q (protein)
chain: B8 chain with G66Q
Q: B14 was tested. Which other: s20,ww-value of the complex ([7]; parent: est. 3.8) did it give?
A: 1.5 S

B15: mouse GIPC1 GH2 domain (residues 258-333), Q9Z0G0 Y275A (protein)
chain: B8 chain with Y18A, E19M
Q: B15 was tested. Which other: s20,ww-value of the complex ([7]; parent: est. 3.8) did it give?
A: 3 S

B16: mouse GIPC1 GH2 domain (residues 258-333), Q9Z0G0 Y275A; M276E; G323Q (protein)
chain: B8 chain with Y18A, G66Q
Q: B16 was tested. Which other: s20,ww-value of the complex ([7]; parent: est. 3.8) did it give?
A: 1.3 S

B17: mouse GIPC1 GH2 domain (residues 258-333), Q9Z0G0 I278Q (protein)
chain: B8 chain with E19M, I21Q
Q: Which other: s20,ww-value of the complex ([7]; parent: est. 3.8) does the source give for B17 here?
A: 2.1 S

B18: mouse GIPC1 GH2 domain (residues 258-333) (domain or fragment)
chain: B8 chain with E19M
Q: How did the stoichiometry N [8] turn out when B18 was run?
A: 1 and 1.1

B19: mouse GIPC1 GH2 domain (residues 258-333), Q9Z0G0 M276E; F319S (protein)
chain: B8 chain with F62S
Q: B19 was tested. Which other: s20,ww-value of the complex ([7]; parent: est. 3.8) did it give?
A: 1.6 S

B20: mouse GIPC1 GH2 domain (residues 258-333), Q9Z0G0 I278Q; G323Q (protein)
chain: B8 chain with E19M, I21Q, G66Q
Q: B20 was tested. Which other: s20,ww-value of the complex ([7]; parent: est. 3.8) did it give?
A: 1.8 S

B21: mouse GIPC1 GH2 domain (residues 258-333), Q9Z0G0 Y275A; M276E (protein)
chain: B8 chain with Y18A
Q: B21 was tested. Which other: s20,ww-value of the complex ([7]; parent: est. 3.8) did it give?
A: 1.3 S
